From IntAct's records for PubMed 35512704 come the findings set out here.

To fix the notation:
B1: Speckle-type POZ protein (Homo sapiens), O43791 (parent)
chain: MSRVPSPPPPAEMSSGPVAESWCYTQIKVVKFSYMWTINNFSFCREEMGEVIKSSTFSSGANDKLKWCLRVNPKGLDEESKDYLSLYLLLVSCPKSEVRAKFKFSILNAKGEETKAMESQRAYRFVQGKDWGFKKFIRRDFLLDEANGLLPDDKLTLFCEVSVVQDSVNISGQNTMNMVKVPECRLADELGGLWENSRFTDCCLCVAGQEFQAHKAILAARSPVFSAMFEHEMEESKKNRVEINDVEPEVFKEMMCFIYTGKAPNLDKMADDLLAAADKYALERLKVMCEDALCSNLSVENAAEILILADLHSADQLKTQAVDFINYHASDVLETSGWKSMVVSHPHLVAEAYRSLASAQCPFLGPPRKRLKQS
partner: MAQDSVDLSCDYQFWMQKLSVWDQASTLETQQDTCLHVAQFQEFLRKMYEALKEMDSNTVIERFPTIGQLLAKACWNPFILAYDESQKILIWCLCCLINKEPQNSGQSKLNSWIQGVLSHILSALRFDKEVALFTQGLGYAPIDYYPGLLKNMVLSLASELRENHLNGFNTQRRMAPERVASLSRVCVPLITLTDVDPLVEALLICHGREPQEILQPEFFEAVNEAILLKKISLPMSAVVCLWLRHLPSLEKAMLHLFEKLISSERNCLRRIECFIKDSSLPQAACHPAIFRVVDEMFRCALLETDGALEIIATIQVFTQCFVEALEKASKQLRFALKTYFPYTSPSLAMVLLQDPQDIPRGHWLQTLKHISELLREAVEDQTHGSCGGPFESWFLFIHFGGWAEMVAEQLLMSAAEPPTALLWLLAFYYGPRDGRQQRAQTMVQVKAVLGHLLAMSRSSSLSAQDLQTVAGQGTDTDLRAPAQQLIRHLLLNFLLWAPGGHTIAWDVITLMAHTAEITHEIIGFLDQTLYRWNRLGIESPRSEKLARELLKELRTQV
B2: Speckle-type POZ protein (Homo sapiens), O43791 (parent)
chain: B1 chain
partner: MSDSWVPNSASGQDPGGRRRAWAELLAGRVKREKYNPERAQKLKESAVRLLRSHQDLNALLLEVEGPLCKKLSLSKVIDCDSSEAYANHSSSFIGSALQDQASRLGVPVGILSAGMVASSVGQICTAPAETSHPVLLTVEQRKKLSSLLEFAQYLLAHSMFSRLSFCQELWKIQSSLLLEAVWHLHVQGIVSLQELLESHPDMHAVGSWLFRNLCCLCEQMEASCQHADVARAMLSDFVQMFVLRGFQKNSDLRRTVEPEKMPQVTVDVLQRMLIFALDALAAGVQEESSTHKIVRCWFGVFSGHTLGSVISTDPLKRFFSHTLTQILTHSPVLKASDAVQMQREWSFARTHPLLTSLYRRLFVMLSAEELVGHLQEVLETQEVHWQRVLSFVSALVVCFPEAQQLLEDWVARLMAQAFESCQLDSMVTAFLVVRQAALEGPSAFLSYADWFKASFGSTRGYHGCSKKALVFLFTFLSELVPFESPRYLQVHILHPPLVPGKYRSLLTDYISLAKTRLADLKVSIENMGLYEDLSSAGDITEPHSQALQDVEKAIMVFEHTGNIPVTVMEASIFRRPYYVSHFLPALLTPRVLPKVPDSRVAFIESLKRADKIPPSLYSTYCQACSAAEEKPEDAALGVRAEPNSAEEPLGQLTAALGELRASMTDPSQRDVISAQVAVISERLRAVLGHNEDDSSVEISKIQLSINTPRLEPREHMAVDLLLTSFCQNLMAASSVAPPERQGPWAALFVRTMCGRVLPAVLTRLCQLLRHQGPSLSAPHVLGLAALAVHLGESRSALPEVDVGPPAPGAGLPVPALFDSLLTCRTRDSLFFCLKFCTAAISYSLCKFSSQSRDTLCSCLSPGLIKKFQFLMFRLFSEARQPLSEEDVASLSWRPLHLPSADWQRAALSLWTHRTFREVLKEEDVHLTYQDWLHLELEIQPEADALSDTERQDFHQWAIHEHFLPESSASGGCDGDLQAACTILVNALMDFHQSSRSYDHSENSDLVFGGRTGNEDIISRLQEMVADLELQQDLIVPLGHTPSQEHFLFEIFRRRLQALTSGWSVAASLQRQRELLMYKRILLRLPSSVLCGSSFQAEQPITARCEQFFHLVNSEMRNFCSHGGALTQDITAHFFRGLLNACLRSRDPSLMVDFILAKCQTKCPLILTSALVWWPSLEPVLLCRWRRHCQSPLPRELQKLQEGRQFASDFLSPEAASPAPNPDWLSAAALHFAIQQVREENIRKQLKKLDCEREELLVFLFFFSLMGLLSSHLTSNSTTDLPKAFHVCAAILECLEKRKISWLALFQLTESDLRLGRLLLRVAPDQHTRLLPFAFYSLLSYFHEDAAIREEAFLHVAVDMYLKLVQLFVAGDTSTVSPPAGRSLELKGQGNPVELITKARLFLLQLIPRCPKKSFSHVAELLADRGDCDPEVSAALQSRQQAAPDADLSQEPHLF
B3: Speckle-type POZ protein (Homo sapiens), O43791 (parent)
chain: B1 chain
partner: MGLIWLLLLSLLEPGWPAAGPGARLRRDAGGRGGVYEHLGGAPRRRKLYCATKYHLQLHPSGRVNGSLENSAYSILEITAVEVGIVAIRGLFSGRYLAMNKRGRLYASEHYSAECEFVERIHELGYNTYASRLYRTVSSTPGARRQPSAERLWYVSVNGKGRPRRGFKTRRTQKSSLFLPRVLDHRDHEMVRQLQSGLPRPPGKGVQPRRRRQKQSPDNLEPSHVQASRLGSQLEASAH
B4: Speckle-type POZ protein (Homo sapiens), O43791 (parent)
chain: B1 chain
partner: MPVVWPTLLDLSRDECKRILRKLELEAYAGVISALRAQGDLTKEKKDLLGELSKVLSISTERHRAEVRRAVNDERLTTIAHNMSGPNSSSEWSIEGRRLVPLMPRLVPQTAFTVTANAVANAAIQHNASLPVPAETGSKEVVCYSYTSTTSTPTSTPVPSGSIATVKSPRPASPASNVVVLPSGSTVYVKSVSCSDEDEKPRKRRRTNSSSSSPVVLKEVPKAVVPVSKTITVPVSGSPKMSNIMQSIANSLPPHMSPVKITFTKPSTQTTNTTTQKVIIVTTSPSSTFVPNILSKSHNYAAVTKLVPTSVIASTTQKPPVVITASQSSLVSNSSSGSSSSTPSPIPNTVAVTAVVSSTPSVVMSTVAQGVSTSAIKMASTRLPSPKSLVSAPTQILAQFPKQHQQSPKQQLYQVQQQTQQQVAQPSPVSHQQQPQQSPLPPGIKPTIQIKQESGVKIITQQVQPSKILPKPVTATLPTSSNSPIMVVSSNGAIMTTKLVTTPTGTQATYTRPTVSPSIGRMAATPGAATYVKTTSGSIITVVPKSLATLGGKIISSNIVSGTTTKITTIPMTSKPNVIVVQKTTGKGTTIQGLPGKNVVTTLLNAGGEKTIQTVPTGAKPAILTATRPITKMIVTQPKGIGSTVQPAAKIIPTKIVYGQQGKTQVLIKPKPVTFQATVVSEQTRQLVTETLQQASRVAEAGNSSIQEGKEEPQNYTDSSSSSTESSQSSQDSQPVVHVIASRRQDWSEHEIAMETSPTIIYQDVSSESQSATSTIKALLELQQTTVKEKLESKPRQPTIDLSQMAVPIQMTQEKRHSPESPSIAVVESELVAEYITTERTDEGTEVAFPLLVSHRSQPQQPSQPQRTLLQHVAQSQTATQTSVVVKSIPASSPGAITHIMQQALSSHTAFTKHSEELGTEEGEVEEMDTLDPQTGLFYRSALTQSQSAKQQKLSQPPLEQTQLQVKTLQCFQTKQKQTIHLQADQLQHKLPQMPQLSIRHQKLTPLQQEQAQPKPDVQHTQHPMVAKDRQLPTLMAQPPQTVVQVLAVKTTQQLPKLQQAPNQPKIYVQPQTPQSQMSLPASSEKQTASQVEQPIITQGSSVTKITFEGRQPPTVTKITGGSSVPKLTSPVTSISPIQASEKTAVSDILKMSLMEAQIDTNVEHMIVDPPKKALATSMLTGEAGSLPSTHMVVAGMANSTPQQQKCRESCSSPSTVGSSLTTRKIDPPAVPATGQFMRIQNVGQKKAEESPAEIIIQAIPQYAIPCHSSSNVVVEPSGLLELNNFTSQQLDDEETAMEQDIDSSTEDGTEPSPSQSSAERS

Variants of B1 are the subject of one assay. The settings on record: with fancc_human FANCC.
On to F133L, for which the “effect of a mutation on the interaction” value is recorded as “with no effect”.

Variants of B2 are the subject of the next assay. The conditions noted are these: with fanca_human FANCA.
As for Y87C, the “effect of a mutation on the interaction” value is on record as “with no effect”.

The variants in another assay derive from B2. The conditions noted are these: with fanca_human FANCA. The source holds these as a separate data set.
In the case of F133L, the “effect of a mutation on the interaction” value is reported as “with no effect”.

In another assay the parent is B2. The settings on record: with fanca_human FANCA. This is another data set of the same source.
For F102C, the “effect of a mutation on the interaction” value was “with no effect”.

A further assay covers variants of B3. The settings on record: with fgf3_human FGF3, P11487.
Take F102C: the “effect of a mutation on the interaction” value is reported as “with no effect”.

The variants in another assay derive from B3. The conditions noted are these: with fgf3_human FGF3, P11487. The source holds these as a separate data set.
In the case of Y87C, the “effect of a mutation on the interaction” value was “with no effect”.

The variants in a further assay derive from B3. The settings on record: with fgf3_human FGF3, P11487. This is another data set of the same source.
As for F133L, the “effect of a mutation on the interaction” value is reported as “with no effect”.

A further assay covers variants of B3. The settings on record: with fgf3_human FGF3, P11487. The source holds these as a separate data set.
For F133V, the “effect of a mutation on the interaction” value is on record as “with no effect”.

The variants in a further assay derive from B4. The settings on record: with emsy_human EMSY.
In the case of F102C, the “effect of a mutation on the interaction” value is listed as “with no effect”.

A further assay covers variants of B4. The settings on record: with emsy_human EMSY. This is another data set of the same source.
As to F133V, the “effect of a mutation on the interaction” value is “with no effect”.

The variants in a further assay derive from B4. The conditions noted are these: with emsy_human EMSY. The source holds these as a separate data set.
Consider F133L, for which the “effect of a mutation on the interaction” value is “with no effect”.

Variants of B4 are the subject of a further assay. The conditions noted are these: with emsy_human EMSY. This is another data set of the same source.
In the case of Y87C, the “effect of a mutation on the interaction” value was “with no effect”.
